Test [1] concerns the target CD3 on Jurkat细胞 (Jurkat靶标细胞) (human) (UniProt P07766). Briefly: flow cytometry (FACSCalibur), culture supernatant on Jurkat cells; negative control sdAb. A general note: A flow cytometer gives signals particle by particle.
Test [2] shares this target. Briefly: flow cytometry (FACSCalibur), culture supernatant on Jurkat cells.
Another test deals with T1, CD3-His蛋白(MP-5) (human, UniProt P07766 23-126).
T1 construct: also called CD3蛋白; not shown: His tag
Briefly: BLI (Octet RED96) off-rate screening; sdAb-SASA from expression medium captured on BSA-coated biosensor, CD3 at 100 nM in solution, 30°C, 1:1 Langmuir model. In general terms: In BLI a coated tip is dipped into the sample, and binding shifts an interference pattern.

As a reminder, the koff is a measure of how fast the partners let go of each other. Read a low koff as slow dissociation.

T1 sequence (P07766 23-126): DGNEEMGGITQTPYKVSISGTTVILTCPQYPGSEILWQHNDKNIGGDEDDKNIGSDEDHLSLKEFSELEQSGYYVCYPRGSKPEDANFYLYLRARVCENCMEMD

For the molecule NC-sdAb (相同形式的非相关性sdAb) (VHH), in test [1], the MFI turned out to be 115 MFI.

B1: 抗CD3单域抗体 C12 (sdAb clone C12) (VHH)
VHH: QVQLQESGGGLVQPGGSLRLSCAASGSMYRPNTMGWHRQAPGEQRKLVARITSDGNTNYADSVKGRFTISRDNAKNTVHLEMNSLQPEDTAVYYCYYSDFVNLRGFWGQGTQVTVSS
notes: Llama sdAb from a phage display library; Tested as unpurified sdAb-SASA protein in E. coli expression medium or culture supernatant; 1 in its text; also called sdAb-SASA; not shown: SASA fusion partner from the pFASEBA vector (sdAb-SASA protein in expression medium)
In the case of B1, the MFI in test [2] was determined as 2330 MFI. The molecule further displayed a koff with CD3-His蛋白(MP-5) of 6.61e-05 s⁻¹.

Source of the values: patent CN106117359A (UNIV SUN YAT SEN, dated 2016).
